Test results reported in US20220040297A1 (Chugai, published 2022).

biological target: CD3ε homodimer protein (human, UniProt P07766 23-126, limits assumed); test: SPR, immobilized CD3ε homodimer;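 further: biacore T200 surface plasmon resonance at 25 °C, antibody variants flowed as analytes over amine-coupled CD3ε homodimer on a CM4 chip, variant binding amount divided by that of GLS3000 antibody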
Sequence (P07766 23-126 limits assumed): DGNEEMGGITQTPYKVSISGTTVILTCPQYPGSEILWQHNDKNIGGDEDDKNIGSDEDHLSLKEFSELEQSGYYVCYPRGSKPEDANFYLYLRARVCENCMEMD

Row | ratio of amounts bound (vs GLS3000) | Binder
1 | 0.43 | GLS3000 P95S (antibody, name in Kabat numbering, V domains shown, one-arm format as m2) VH: QVQLVESGGGVVQPGRSLRLSCAASGFTFSNAWMHWVRQAPGKGLEWVAQIKAKSNNYATYYAESVKGRFTISRDDSKNSLYLQMNSLKTEDTAVYYCRYVHYGAYYGVDAWGQGTTVTVSS VL: DIVMTQSPLSLPVTPGEPASISCRSSQSLVHSNRNTYLHWYQQKPGQAPRLLIYKVSNRFSGVPDRFSGSGSGTDFTLKISRVEAEDVGVYYCGQGTQVSYTFGQGTKLEIK
2 | 0.24 | GLS3000 P95L (antibody, name in Kabat numbering, V domains shown, one-arm format as m2) VH: QVQLVESGGGVVQPGRSLRLSCAASGFTFSNAWMHWVRQAPGKGLEWVAQIKAKSNNYATYYAESVKGRFTISRDDSKNSLYLQMNSLKTEDTAVYYCRYVHYGAYYGVDAWGQGTTVTVSS VL: DIVMTQSPLSLPVTPGEPASISCRSSQSLVHSNRNTYLHWYQQKPGQAPRLLIYKVSNRFSGVPDRFSGSGSGTDFTLKISRVEAEDVGVYYCGQGTQVLYTFGQGTKLEIK
3 | 0.37 | GLS3000 P95G (antibody, name in Kabat numbering, V domains shown, one-arm format as m2) VH: QVQLVESGGGVVQPGRSLRLSCAASGFTFSNAWMHWVRQAPGKGLEWVAQIKAKSNNYATYYAESVKGRFTISRDDSKNSLYLQMNSLKTEDTAVYYCRYVHYGAYYGVDAWGQGTTVTVSS VL: DIVMTQSPLSLPVTPGEPASISCRSSQSLVHSNRNTYLHWYQQKPGQAPRLLIYKVSNRFSGVPDRFSGSGSGTDFTLKISRVEAEDVGVYYCGQGTQVGYTFGQGTKLEIK
4 | 0.39 | GLS3000 P95E (antibody, name in Kabat numbering, V domains shown, one-arm format as m2) VH: QVQLVESGGGVVQPGRSLRLSCAASGFTFSNAWMHWVRQAPGKGLEWVAQIKAKSNNYATYYAESVKGRFTISRDDSKNSLYLQMNSLKTEDTAVYYCRYVHYGAYYGVDAWGQGTTVTVSS VL: DIVMTQSPLSLPVTPGEPASISCRSSQSLVHSNRNTYLHWYQQKPGQAPRLLIYKVSNRFSGVPDRFSGSGSGTDFTLKISRVEAEDVGVYYCGQGTQVEYTFGQGTKLEIK

Second part, the binder before the results:

Row | Binder | ratio of amounts bound (vs GLS3000)
5 | GLS3000 N53W (antibody, name in Kabat numbering, V domains shown, one-arm format as m2) VH: QVQLVESGGGVVQPGRSLRLSCAASGFTFSNAWMHWVRQAPGKGLEWVAQIKAKSNNYATYYAESVKGRFTISRDDSKNSLYLQMNSLKTEDTAVYYCRYVHYGAYYGVDAWGQGTTVTVSS VL: DIVMTQSPLSLPVTPGEPASISCRSSQSLVHSNRNTYLHWYQQKPGQAPRLLIYKVSWRFSGVPDRFSGSGSGTDFTLKISRVEAEDVGVYYCGQGTQVPYTFGQGTKLEIK | 0.81
6 | GLS3000 P95D (antibody, name in Kabat numbering, V domains shown, one-arm format as m2) VH: QVQLVESGGGVVQPGRSLRLSCAASGFTFSNAWMHWVRQAPGKGLEWVAQIKAKSNNYATYYAESVKGRFTISRDDSKNSLYLQMNSLKTEDTAVYYCRYVHYGAYYGVDAWGQGTTVTVSS VL: DIVMTQSPLSLPVTPGEPASISCRSSQSLVHSNRNTYLHWYQQKPGQAPRLLIYKVSNRFSGVPDRFSGSGSGTDFTLKISRVEAEDVGVYYCGQGTQVDYTFGQGTKLEIK | 0.24
7 | GLS3000 P95A (antibody, name in Kabat numbering, V domains shown, one-arm format as m2) VH: QVQLVESGGGVVQPGRSLRLSCAASGFTFSNAWMHWVRQAPGKGLEWVAQIKAKSNNYATYYAESVKGRFTISRDDSKNSLYLQMNSLKTEDTAVYYCRYVHYGAYYGVDAWGQGTTVTVSS VL: DIVMTQSPLSLPVTPGEPASISCRSSQSLVHSNRNTYLHWYQQKPGQAPRLLIYKVSNRFSGVPDRFSGSGSGTDFTLKISRVEAEDVGVYYCGQGTQVAYTFGQGTKLEIK | 0.63
8 | GLS3000 N53Y (antibody, name in Kabat numbering, V domains shown, one-arm format as m2) VH: QVQLVESGGGVVQPGRSLRLSCAASGFTFSNAWMHWVRQAPGKGLEWVAQIKAKSNNYATYYAESVKGRFTISRDDSKNSLYLQMNSLKTEDTAVYYCRYVHYGAYYGVDAWGQGTTVTVSS VL: DIVMTQSPLSLPVTPGEPASISCRSSQSLVHSNRNTYLHWYQQKPGQAPRLLIYKVSYRFSGVPDRFSGSGSGTDFTLKISRVEAEDVGVYYCGQGTQVPYTFGQGTKLEIK | 0.67
